{"source": "patent US20240002531A1", "about": "(ONO PHARMACEUTICAL, published 2024)", "binders": {"B1": {"name": "H2Mab-250 antibody (antibody, V domains shown)", "VH": "EVQLVESGGGLVQPGGSLKLSCAASGFTFSNYGMSWVRQTPDRRLELVATINNNGGGTYYPDSVKGRFTISRDNAKNTLYLQMSSLKSEDTAMYYCTSPGLLWDAWGAGTTVTVSS", "VL": "not shown", "notes": "Mouse monoclonal from a hybridoma (immunogen HER2ec made in LN229 cells); also called antibody of the present invention"}, "B2": {"name": "H2Mab-214 antibody (antibody, V domains shown)", "VH": "QVTLKESGPGILQPSQTLSLTCSFSGFSLSTSGMGVSWIRQPSGKGLEWLAHIFWDDDKRYNPSLKSRLTISKDTSRNKVFLKITSVDTADTATYYCARRVVATDWYFDVWGAGTTVTVSS", "VL": "DIVLTQSPASLAVSLGQRATISCRASESVEYYGTTLMQWYQQKPGQPPKLLIYAASKVESGVPARFSGSGSGTDFSLNIHPVEEDDVAMYFCQQSRKVPLTFGAGTKLELKR", "notes": "as for B1"}}, "key": {"[1]": {"target": "T1, HER2 peptide 613-632 (amino acids 613 to 632 of human HER2) (human)", "T1 construct": "Synthetic peptide", "T1 peptide": "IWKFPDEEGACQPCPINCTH", "experiment": "ELISA, peptide coated at 10 µg/ml, antibody 10 µg/ml"}, "[2]": {"target": "T2, F616A peptide (HER2 603-622 with F616A) (human)", "T2 peptide": "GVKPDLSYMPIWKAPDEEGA", "experiment": "SPR Biacore, mAb on chip, peptide analyte, 1:1 fit;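 also: where kon or koff could not be resolved by kinetic fitting, Kd comes instead from steady-state equilibrium analysis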"}, "[3]": {"target": "T3, G621A peptide (HER2 603-622 with G621A) (human)", "T3 peptide": "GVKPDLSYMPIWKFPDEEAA", "experiment": "SPR Biacore, mAb on chip, peptide analyte, 1:1 fit"}, "[4]": {"target": "T4, E620A peptide (HER2 603-622 with E620A) (human)", "T4 peptide": "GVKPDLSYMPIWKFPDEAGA", "experiment": "SPR Biacore, mAb on chip, peptide analyte, 1:1 fit"}, "[5]": {"target": "T5, K605A peptide (HER2 603-622 with K605A) (human)", "T5 peptide": "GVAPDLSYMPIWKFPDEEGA", "experiment": "SPR Biacore, mAb on chip, peptide analyte, 1:1 fit"}, "[6]": {"target": "T6, E619A peptide (HER2 603-622 with E619A) (human)", "T6 peptide": "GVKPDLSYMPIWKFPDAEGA", "experiment": "SPR Biacore, mAb on chip, peptide analyte, 1:1 fit"}, "[7]": {"target": "T7, L608A peptide (HER2 603-622 with L608A) (human)", "T7 peptide": "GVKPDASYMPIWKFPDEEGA", "experiment": "SPR Biacore, mAb on chip, peptide analyte, 1:1 fit"}, "[8]": {"target": "T8, HER2 peptide p603-622 (amino acids 603 to 622 of human HER2) (human)", "T8 construct": "Synthetic peptide; also called wild-type HER2 peptide", "T8 peptide": "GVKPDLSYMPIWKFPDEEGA", "experiment": "SPR Biacore, mAb on chip, peptide analyte, 1:1 fit"}, "[9]": {"target": "T9, D618A peptide (HER2 603-622 with D618A) (human)", "T9 peptide": "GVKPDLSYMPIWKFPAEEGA", "experiment": "SPR Biacore, mAb on chip, peptide analyte, 1:1 fit"}, "[10]": {"target": "T10, I613A peptide (HER2 603-622 with I613A) (human)", "T10 construct": "also called 1613A", "T10 peptide": "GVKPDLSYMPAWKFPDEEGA", "experiment": "SPR Biacore, mAb on chip, peptide analyte, 1:1 fit"}, "[11]": {"target": "T11, P612A peptide (HER2 603-622 with P612A) (human)", "T11 peptide": "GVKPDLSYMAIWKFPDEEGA", "experiment": "SPR Biacore, mAb on chip, peptide analyte, 1:1 fit"}, "[12]": {"target": "T12, V604A peptide (HER2 603-622 with V604A) (human)", "T12 peptide": "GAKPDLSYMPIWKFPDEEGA", "experiment": "SPR Biacore, mAb on chip, peptide analyte, 1:1 fit"}, "[13]": {"target": "T13, Y610A peptide (HER2 603-622 with Y610A) (human)", "T13 peptide": "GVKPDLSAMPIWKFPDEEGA", "experiment": "SPR Biacore, mAb on chip, peptide analyte, 1:1 fit"}, "[14]": {"target": "T14, S609A peptide (HER2 603-622 with S609A) (human)", "T14 peptide": "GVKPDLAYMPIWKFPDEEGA", "experiment": "SPR Biacore, mAb on chip, peptide analyte, 1:1 fit"}, "[15]": {"target": "T15, P617A peptide (HER2 603-622 with P617A) (human)", "T15 peptide": "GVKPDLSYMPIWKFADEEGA", "experiment": "SPR Biacore, mAb on chip, peptide analyte, 1:1 fit"}, "[16]": {"target": "T16, D607A peptide (HER2 603-622 with D607A) (human)", "T16 peptide": "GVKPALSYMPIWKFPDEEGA", "experiment": "SPR Biacore, mAb on chip, peptide analyte, 1:1 fit"}, "[17]": {"target": "T17, K615A peptide (HER2 603-622 with K615A) (human)", "T17 peptide": "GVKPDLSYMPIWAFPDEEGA", "experiment": "SPR Biacore, mAb on chip, peptide analyte, 1:1 fit"}, "[18]": {"target": "T18, HER2 peptide p614-620 (human)", "T18 peptide": "WKFPDEE", "experiment": "SPR Biacore, mAb on chip, peptide analyte, equilibrium analysis"}, "[19]": {"target": "T19, HER2 peptide p614-621 (human)", "T19 peptide": "WKFPDEEG", "experiment": "SPR Biacore, mAb on chip, peptide analyte, equilibrium analysis"}, "[20]": {"target": "T20, HER2-W614A expressed on CHO-K1 cells (human, UniProt P04626 23-1255)", "T20 construct": "also called W614A point mutant; not shown: PA tag at the N terminus; RAP tag and MAP tag at the C terminus", "experiment": "flow cytometry on CHO-K1 cells expressing the point mutant"}, "[21]": {"target": "T21, HER2-F616A expressed on CHO-K1 cells (human, UniProt P04626 23-1255)", "T21 construct": "also called F616A point mutant; not shown: PA tag at the N terminus; RAP tag and MAP tag at the C terminus", "experiment": "flow cytometry on CHO-K1 cells expressing the point mutant"}, "[22]": {"target": "T22, HER2-K615A expressed on CHO-K1 cells (human, UniProt P04626 23-1255)", "T22 construct": "also called K615A point mutant; not shown: PA tag at the N terminus; RAP tag and MAP tag at the C terminus", "experiment": "flow cytometry on CHO-K1 cells expressing the point mutant"}}, "data": [{"binder": "B1", "values": [{"measurement": "binding result", "setting": "[1]", "value": "binds"}, {"measurement": "Kd", "setting": "[2]", "value": 204, "unit": "nM"}, {"measurement": "koff", "setting": "[2]", "value": 0.0108, "unit": "s⁻¹"}, {"measurement": "kon", "setting": "[2]", "value": 52800, "unit": "M⁻¹ s⁻¹"}, {"measurement": "Kd", "setting": "[3]", "value": 6.91, "unit": "nM"}, {"measurement": "koff", "setting": "[3]", "value": 0.000399, "unit": "s⁻¹"}, {"measurement": "kon", "setting": "[3]", "value": 57800, "unit": "M⁻¹ s⁻¹"}, {"measurement": "Kd", "setting": "[4]", "value": 7.98, "unit": "nM"}, {"measurement": "koff", "setting": "[4]", "value": 0.000455, "unit": "s⁻¹"}, {"measurement": "kon", "setting": "[4]", "value": 57100, "unit": "M⁻¹ s⁻¹"}, {"measurement": "Kd", "setting": "[5]", "value": 6.45, "unit": "nM"}, {"measurement": "koff", "setting": "[5]", "value": 0.000346, "unit": "s⁻¹"}, {"measurement": "kon", "setting": "[5]", "value": 53600, "unit": "M⁻¹ s⁻¹"}, {"measurement": "Kd", "setting": "[6]", "value": 6.29, "unit": "nM"}, {"measurement": "koff", "setting": "[6]", "value": 0.000465, "unit": "s⁻¹"}, {"measurement": "kon", "setting": "[6]", "value": 73900, "unit": "M⁻¹ s⁻¹"}, {"measurement": "Kd", "setting": "[7]", "value": 8.79, "unit": "nM"}, {"measurement": "koff", "setting": "[7]", "value": 0.000431, "unit": "s⁻¹"}, {"measurement": "kon", "setting": "[7]", "value": 49100, "unit": "M⁻¹ s⁻¹"}, {"measurement": "Kd", "setting": "[8]", "value": 5.8, "unit": "nM"}, {"measurement": "koff", "setting": "[8]", "value": 0.00037, "unit": "s⁻¹"}, {"measurement": "kon", "setting": "[8]", "value": 63900, "unit": "M⁻¹ s⁻¹"}, {"measurement": "Kd", "setting": "[9]", "value": 5.8, "unit": "nM"}, {"measurement": "koff", "setting": "[9]", "value": 0.000432, "unit": "s⁻¹"}, {"measurement": "kon", "setting": "[9]", "value": 74500, "unit": "M⁻¹ s⁻¹"}, {"measurement": "Kd", "setting": "[10]", "value": 93.9, "unit": "nM"}, {"measurement": "koff", "setting": "[10]", "value": 0.00828, "unit": "s⁻¹"}, {"measurement": "kon", "setting": "[10]", "value": 88400, "unit": "M⁻¹ s⁻¹"}, {"measurement": "Kd", "setting": "[11]", "value": 9.54, "unit": "nM"}, {"measurement": "koff", "setting": "[11]", "value": 0.000609, "unit": "s⁻¹"}, {"measurement": "kon", "setting": "[11]", "value": 63800, "unit": "M⁻¹ s⁻¹"}, {"measurement": "Kd", "setting": "[12]", "value": 6.54, "unit": "nM"}, {"measurement": "koff", "setting": "[12]", "value": 0.000399, "unit": "s⁻¹"}, {"measurement": "kon", "setting": "[12]", "value": 61000, "unit": "M⁻¹ s⁻¹"}, {"measurement": "Kd", "setting": "[13]", "value": 7.9, "unit": "nM"}, {"measurement": "koff", "setting": "[13]", "value": 0.000451, "unit": "s⁻¹"}, {"measurement": "kon", "setting": "[13]", "value": 57100, "unit": "M⁻¹ s⁻¹"}, {"measurement": "Kd", "setting": "[14]", "value": 6.51, "unit": "nM"}, {"measurement": "koff", "setting": "[14]", "value": 0.000394, "unit": "s⁻¹"}, {"measurement": "kon", "setting": "[14]", "value": 60600, "unit": "M⁻¹ s⁻¹"}, {"measurement": "Kd", "setting": "[15]", "value": 207, "unit": "nM"}, {"measurement": "koff", "setting": "[15]", "value": 0.00914, "unit": "s⁻¹"}, {"measurement": "kon", "setting": "[15]", "value": 44100, "unit": "M⁻¹ s⁻¹"}, {"measurement": "Kd", "setting": "[16]", "value": 7.06, "unit": "nM"}, {"measurement": "koff", "setting": "[16]", "value": 0.00052, "unit": "s⁻¹"}, {"measurement": "kon", "setting": "[16]", "value": 73600, "unit": "M⁻¹ s⁻¹"}, {"measurement": "Kd", "setting": "[17]", "value": 336, "unit": "nM"}, {"measurement": "koff", "setting": "[17]", "value": 0.00963, "unit": "s⁻¹"}, {"measurement": "kon", "setting": "[17]", "value": 28700, "unit": "M⁻¹ s⁻¹"}, {"measurement": "Kd", "setting": "[18]", "value": 26400, "unit": "nM"}, {"measurement": "Kd", "setting": "[19]", "value": 26600, "unit": "nM"}, {"measurement": "binding result", "setting": "[20]", "value": "no binding (tested: 10 g/mL (so in the source))"}]}, {"binder": "B2", "values": [{"measurement": "binding result", "setting": "[1]", "value": "binds"}, {"measurement": "binding result", "setting": "[21]", "value": "no binding (tested: 10 g/mL (so in the source))"}, {"measurement": "binding result", "setting": "[22]", "value": "no binding (tested: 10 g/mL (so in the source))"}]}]}
